Laboratory results from publication PMC12560621, “β-Branching in the biosynthesis of bongkrekic acid: a complex affair” (RSC Advances, 2025).

Legend:
[1] = biological target: BonA_ACP2a (Burkholderia gladioli pv. cocovenenans)
[2] = biological target: BonA_ACP1a (Burkholderia gladioli pv. cocovenenans)
[3] = biological target: BonH (Burkholderia gladioli pv. cocovenenans); assay: SEC; analytical size exclusion chromatography of the purified protein in solution; conditions in the supplementary information
[4] = biological target: the molecule itself; assay: as above

Molecule: BonI (enzyme)
- BonI-catalysed decarboxylation of MG-BonA ACP2a (made by BonH from HMG-BonA ACP2a) to endo-β-methyl-BonA ACP2a, by ESMS and Ppant ejection [1]: 50%
- BonI-catalysed conversion (with BonH) of HMG-BonA ACP1a to the endo-β-methyl-ACP product, by ESMS [2]: 15%

Molecule: BonH (enzyme)
- BonH-catalysed conversion of HMG-BonA ACP1a to the MG-ACP product, by ESMS [2]: 15%
- stoichiometry N [3]: 3

B1: BonI (enzyme)
chain: MSRPAHFHGSATEMSERVVHLAELEPGIVRITLEDRTHKNAFSDRLLNGIVEAFAEVAANPSWKAVILTGYDTYFCTGGTQDMLLKLSKGEGRFTDFPIYNLPLTCEIPVIAAMQGHAVGGGLALGLFADFVVLSRESVYTANFMKYGFTPGFGSTLVMREKLGLPLAQALLMTAANYRGDELARHGIAFPVLPRAEVAAHALDIARQLADKPRHSLVTLKAHLNAPLRAMLPEVTAREVEMHERTFPHPEVQQRIRALFGS
- stoichiometry N [4]: 3
